# Article PMC3469418 (2012)
# Read-outs that look alike come from different tables or passages of the source.
# Columns and labels:
# Test in all cases: SPR
# [1] = molecular target: RPL12 peptide dimethylated on lysine 3 (D. melanogaster, UniProt Q9W1B9, dimethyl-lysine at 3 (K3me2))
# RPL12 unmodified peptide [2] = molecular target: T1, RPL12 unmodified peptide (D. melanogaster, UniProt Q9W1B9)
# [3] = molecular target: T2, RPL12 peptide trimethylated on lysine 3 (D. melanogaster, UniProt Q9W1B9, trimethyl-lysine at 3 (K3me3))
# RPL12 unmodified peptide [4] = molecular target: T1, RPL12 unmodified peptide; remark: listed apart in the source
# [5] = molecular target: T2, RPL12 peptide trimethylated on lysine 3; remark: listed apart in the source
Kd [1],koff [1],Kd (RPL12 unmodified peptide [2]),koff (RPL12 unmodified peptide [2]),koff [3],Kd (RPL12 unmodified peptide [4]),Kd [5],Binder
238 µM,0.00099 s⁻¹,624 µM,0.00076 s⁻¹,0.00082 s⁻¹,–,–,GST-CortoCD (Corto chromodomain fused to GST) (domain or fragment) TASSNSNAAPAPSPQKDYSIPLHVDCSVEYELPNQPKPPAGQRVEPLLMIHPCYFRKMESQRRSPFVNNMHATARAV
–,–,–,–,–,> 1000 µM,292 µM,GST-HP1CD (HP1 chromodomain fused to GST) (domain or fragment) not shown
